In US6132730:
Where “and” joins values, the source holds several entries; their conditions need not be identical. Equal values may be shown once. Read-outs that look alike come from different tables or passages of the source.

Assays:
[1] = target: H6-N'-cys-tTF219 dimer (human)
[2] = target: H6-tTF221-cys-C' (human)
[3] = target: truncated Tissue Factor tTF219 (extracellular domain of the mature Tissue Factor protein, amino acids 1-219) (human)
[4] = target: truncated Tissue Factor tTF219 (extracellular domain of the mature Tissue Factor protein, amino acids 1-219) (human); remark: listed apart in the source
[5] = target: IgG-H6-N'-cys-tTF219 (human)
[6] = target: H6-N'-cys-tTF219 (human)
[7] = target: H6-tTF219-cys-C' (human)
[8] = target: I-A^d (MHC Class II antigen) on A20 mouse B-lymphoma cells (mouse) (UniProt P04228)
[9] = target: truncated Tissue Factor tTF219 (extracellular domain of the mature Tissue Factor protein, amino acids 1-219) (human); remark: listed apart in the source
[10] = target: truncated Tissue Factor tTF219 (extracellular domain of the mature Tissue Factor protein, amino acids 1-219) (human); remark: listed apart in the source
[11] = target: tTF220-cys-C' (human)
[12] = target: H6-tTF221-cys-C' (human); remark: listed apart in the source
[13] = target: truncated Tissue Factor tTF219 (extracellular domain of the mature Tissue Factor protein, amino acids 1-219) (human); remark: listed apart in the source
[14] = target: tTF221-cys-C' (human)
[15] = target: H6-tTF220-cys-C' (human)

tTF concentration at which plasma coagulated in 50 seconds (A20 cells coated with B21-2/10H10) [1]: 100 pM and 200 pM | tTF concentration at which plasma coagulated in 50 seconds (A20 cells coated with B21-2/10H10) [2]: 1 nM | tTF concentration at which plasma coagulated in 50 seconds (A20 cells coated with B21-2/10H10) [3]: 100 pM | tTF concentration at which plasma coagulated in 50 seconds (A20 cells coated with B21-2/10H10) [4]: 1 nM | tTF concentration at which plasma coagulated in 50 seconds (A20 cells coated with B21-2/10H10) [5]: 5 nM | tTF concentration at which plasma coagulated in 50 seconds (A20 cells coated with B21-2/10H10) [6]: 3 nM | tTF concentration at which plasma coagulated in 50 seconds (A20 cells coated with B21-2/10H10) [7]: 3 nM | clotting time of citrated mouse plasma on A20 cells [8]: 36 s | clotting time of citrated mouse plasma on A20 cells [9]: 36 s | tTF concentration at which plasma coagulated in 50 seconds (A20 cells coated with B21-2/10H10) [10]: 3 nM | tTF concentration at which plasma coagulated in 50 seconds (A20 cells coated with B21-2/10H10) [11]: 500 pM | tTF concentration at which plasma coagulated in 50 seconds (A20 cells coated with B21-2/10H10) [12]: 500 pM | tTF concentration at which plasma coagulated in 50 seconds (A20 cells coated with B21-2/10H10) [13]: 500 pM | tTF concentration at which plasma coagulated in 50 seconds (A20 cells coated with B21-2/10H10) [14]: 500 pM | tTF concentration at which plasma coagulated in 50 seconds (A20 cells coated with B21-2/10H10) [15]: 500 pM
Substance: B21-2/10H10 bispecific antibody (Fab' arm of B21-2 linked to Fab' arm of 10H10)
